Reference: patent publication US20220298218A1 (ANTAG THERAPEUTICS, published 2022)

B1: AT461 (peptide)
peptide: TFISDYKIAMDKIHQQDFVNWLLAQKGKKNDWKHNI
HELM: PEPTIDE1{T.F.I.S.D.Y.K.I.A.M.D.K.I.H.Q.Q.D.F.V.N.W.L.L.A.Q.K.G.K.K.N.D.W.K.H.N.I}|PEPTIDE2{[O=C(O)CCCCCCCCCCCCCCC(=O)[*:2]].[gGlu]}$PEPTIDE1,PEPTIDE2,7:R3-2:R2$$$V2.0; N-terminus assumed
SMILES: CC[C@H](C)[C@H](NC(=O)[C@H](CC(N)=O)NC(=O)[C@H](Cc1c[nH]cn1)NC(=O)[C@H](CCCCN)NC(=O)[C@H](Cc1c[nH]c2ccccc12)NC(=O)[C@H](CC(=O)O)NC(=O)[C@H](CC(N)=O)NC(=O)[C@H](CCCCN)NC(=O)[C@H](CCCCN)NC(=O)CNC(=O)[C@H](CCCCN)NC(=O)[C@H](CCC(N)=O)NC(=O)[C@H](C)NC(=O)[C@H](CC(C)C)NC(=O)[C@H](CC(C)C)NC(=O)[C@H](Cc1c[nH]c2ccccc12)NC(=O)[C@H](CC(N)=O)NC(=O)[C@@H](NC(=O)[C@H](Cc1ccccc1)NC(=O)[C@H](CC(=O)O)NC(=O)[C@H](CCC(N)=O)NC(=O)[C@H](CCC(N)=O)NC(=O)[C@H](Cc1c[nH]cn1)NC(=O)[C@@H](NC(=O)[C@H](CCCCN)NC(=O)[C@H](CC(=O)O)NC(=O)[C@H](CCSC)NC(=O)[C@H](C)NC(=O)[C@@H](NC(=O)[C@H](CCCCNC(=O)CC[C@H](NC(=O)CCCCCCCCCCCCCCC(=O)O)C(=O)O)NC(=O)[C@H](Cc1ccc(O)cc1)NC(=O)[C@H](CC(=O)O)NC(=O)[C@H](CO)NC(=O)[C@@H](NC(=O)[C@H](Cc1ccccc1)NC(=O)[C@@H](N)[C@@H](C)O)[C@@H](C)CC)[C@@H](C)CC)[C@@H](C)CC)C(C)C)C(=O)O
B2: AT458 (peptide)
peptide: TFISDYKIAMDKIHQQDFVNWLLAQKGKKND
HELM: PEPTIDE1{T.F.I.S.D.Y.K.I.A.M.D.K.I.H.Q.Q.D.F.V.N.W.L.L.A.Q.K.G.K.K.N.D}|PEPTIDE2{[O=C(O)CCCCCCCCCCCCCCC(=O)[*:2]].[gGlu]}$PEPTIDE1,PEPTIDE2,7:R3-2:R2$$$V2.0; N-terminus assumed
SMILES: CC[C@H](C)[C@H](NC(=O)[C@H](CCCCNC(=O)CC[C@H](NC(=O)CCCCCCCCCCCCCCC(=O)O)C(=O)O)NC(=O)[C@H](Cc1ccc(O)cc1)NC(=O)[C@H](CC(=O)O)NC(=O)[C@H](CO)NC(=O)[C@@H](NC(=O)[C@H](Cc1ccccc1)NC(=O)[C@@H](N)[C@@H](C)O)[C@@H](C)CC)C(=O)N[C@@H](C)C(=O)N[C@@H](CCSC)C(=O)N[C@@H](CC(=O)O)C(=O)N[C@@H](CCCCN)C(=O)N[C@H](C(=O)N[C@@H](Cc1c[nH]cn1)C(=O)N[C@@H](CCC(N)=O)C(=O)N[C@@H](CCC(N)=O)C(=O)N[C@@H](CC(=O)O)C(=O)N[C@@H](Cc1ccccc1)C(=O)N[C@H](C(=O)N[C@@H](CC(N)=O)C(=O)N[C@@H](Cc1c[nH]c2ccccc12)C(=O)N[C@@H](CC(C)C)C(=O)N[C@@H](CC(C)C)C(=O)N[C@@H](C)C(=O)N[C@@H](CCC(N)=O)C(=O)N[C@@H](CCCCN)C(=O)NCC(=O)N[C@@H](CCCCN)C(=O)N[C@@H](CCCCN)C(=O)N[C@@H](CC(N)=O)C(=O)N[C@@H](CC(=O)O)C(=O)O)C(C)C)[C@@H](C)CC
B3: AT459 (peptide)
peptide: TFISDYKIAMDKIHQQDFVNWLLAQKGKKNDWK
HELM: PEPTIDE1{T.F.I.S.D.Y.K.I.A.M.D.K.I.H.Q.Q.D.F.V.N.W.L.L.A.Q.K.G.K.K.N.D.W.K}|PEPTIDE2{[O=C(O)CCCCCCCCCCCCCCC(=O)[*:2]].[gGlu]}$PEPTIDE1,PEPTIDE2,7:R3-2:R2$$$V2.0; N-terminus assumed
SMILES: CC[C@H](C)[C@H](NC(=O)[C@H](CCCCNC(=O)CC[C@H](NC(=O)CCCCCCCCCCCCCCC(=O)O)C(=O)O)NC(=O)[C@H](Cc1ccc(O)cc1)NC(=O)[C@H](CC(=O)O)NC(=O)[C@H](CO)NC(=O)[C@@H](NC(=O)[C@H](Cc1ccccc1)NC(=O)[C@@H](N)[C@@H](C)O)[C@@H](C)CC)C(=O)N[C@@H](C)C(=O)N[C@@H](CCSC)C(=O)N[C@@H](CC(=O)O)C(=O)N[C@@H](CCCCN)C(=O)N[C@H](C(=O)N[C@@H](Cc1c[nH]cn1)C(=O)N[C@@H](CCC(N)=O)C(=O)N[C@@H](CCC(N)=O)C(=O)N[C@@H](CC(=O)O)C(=O)N[C@@H](Cc1ccccc1)C(=O)N[C@H](C(=O)N[C@@H](CC(N)=O)C(=O)N[C@@H](Cc1c[nH]c2ccccc12)C(=O)N[C@@H](CC(C)C)C(=O)N[C@@H](CC(C)C)C(=O)N[C@@H](C)C(=O)N[C@@H](CCC(N)=O)C(=O)N[C@@H](CCCCN)C(=O)NCC(=O)N[C@@H](CCCCN)C(=O)N[C@@H](CCCCN)C(=O)N[C@@H](CC(N)=O)C(=O)N[C@@H](CC(=O)O)C(=O)N[C@@H](Cc1c[nH]c2ccccc12)C(=O)N[C@@H](CCCCN)C(=O)O)C(C)C)[C@@H](C)CC
B4: AT457 (peptide)
peptide: TFISDYKIAMDKIHQQDFVNWLLAQKGKKN
HELM: PEPTIDE1{T.F.I.S.D.Y.K.I.A.M.D.K.I.H.Q.Q.D.F.V.N.W.L.L.A.Q.K.G.K.K.N}|PEPTIDE2{[O=C(O)CCCCCCCCCCCCCCC(=O)[*:2]].[gGlu]}$PEPTIDE1,PEPTIDE2,7:R3-2:R2$$$V2.0; N-terminus assumed
SMILES: CC[C@H](C)[C@H](NC(=O)[C@H](CCCCNC(=O)CC[C@H](NC(=O)CCCCCCCCCCCCCCC(=O)O)C(=O)O)NC(=O)[C@H](Cc1ccc(O)cc1)NC(=O)[C@H](CC(=O)O)NC(=O)[C@H](CO)NC(=O)[C@@H](NC(=O)[C@H](Cc1ccccc1)NC(=O)[C@@H](N)[C@@H](C)O)[C@@H](C)CC)C(=O)N[C@@H](C)C(=O)N[C@@H](CCSC)C(=O)N[C@@H](CC(=O)O)C(=O)N[C@@H](CCCCN)C(=O)N[C@H](C(=O)N[C@@H](Cc1c[nH]cn1)C(=O)N[C@@H](CCC(N)=O)C(=O)N[C@@H](CCC(N)=O)C(=O)N[C@@H](CC(=O)O)C(=O)N[C@@H](Cc1ccccc1)C(=O)N[C@H](C(=O)N[C@@H](CC(N)=O)C(=O)N[C@@H](Cc1c[nH]c2ccccc12)C(=O)N[C@@H](CC(C)C)C(=O)N[C@@H](CC(C)C)C(=O)N[C@@H](C)C(=O)N[C@@H](CCC(N)=O)C(=O)N[C@@H](CCCCN)C(=O)NCC(=O)N[C@@H](CCCCN)C(=O)N[C@@H](CCCCN)C(=O)N[C@@H](CC(N)=O)C(=O)O)C(C)C)[C@@H](C)CC
B5: AT460 (peptide)
peptide: TFISDYKIAMDKIHQQDFVNWLLAQKGKKNDWKH
HELM: PEPTIDE1{T.F.I.S.D.Y.K.I.A.M.D.K.I.H.Q.Q.D.F.V.N.W.L.L.A.Q.K.G.K.K.N.D.W.K.H}|PEPTIDE2{[O=C(O)CCCCCCCCCCCCCCC(=O)[*:2]].[gGlu]}$PEPTIDE1,PEPTIDE2,7:R3-2:R2$$$V2.0; N-terminus assumed
SMILES: CC[C@H](C)[C@H](NC(=O)[C@H](CCCCNC(=O)CC[C@H](NC(=O)CCCCCCCCCCCCCCC(=O)O)C(=O)O)NC(=O)[C@H](Cc1ccc(O)cc1)NC(=O)[C@H](CC(=O)O)NC(=O)[C@H](CO)NC(=O)[C@@H](NC(=O)[C@H](Cc1ccccc1)NC(=O)[C@@H](N)[C@@H](C)O)[C@@H](C)CC)C(=O)N[C@@H](C)C(=O)N[C@@H](CCSC)C(=O)N[C@@H](CC(=O)O)C(=O)N[C@@H](CCCCN)C(=O)N[C@H](C(=O)N[C@@H](Cc1c[nH]cn1)C(=O)N[C@@H](CCC(N)=O)C(=O)N[C@@H](CCC(N)=O)C(=O)N[C@@H](CC(=O)O)C(=O)N[C@@H](Cc1ccccc1)C(=O)N[C@H](C(=O)N[C@@H](CC(N)=O)C(=O)N[C@@H](Cc1c[nH]c2ccccc12)C(=O)N[C@@H](CC(C)C)C(=O)N[C@@H](CC(C)C)C(=O)N[C@@H](C)C(=O)N[C@@H](CCC(N)=O)C(=O)N[C@@H](CCCCN)C(=O)NCC(=O)N[C@@H](CCCCN)C(=O)N[C@@H](CCCCN)C(=O)N[C@@H](CC(N)=O)C(=O)N[C@@H](CC(=O)O)C(=O)N[C@@H](Cc1c[nH]c2ccccc12)C(=O)N[C@@H](CCCCN)C(=O)N[C@@H](Cc1c[nH]cn1)C(=O)O)C(C)C)[C@@H](C)CC

Biological target: T1, human GIP receptor (human, UniProt P48546 22-466)
T1 sequence (looked up): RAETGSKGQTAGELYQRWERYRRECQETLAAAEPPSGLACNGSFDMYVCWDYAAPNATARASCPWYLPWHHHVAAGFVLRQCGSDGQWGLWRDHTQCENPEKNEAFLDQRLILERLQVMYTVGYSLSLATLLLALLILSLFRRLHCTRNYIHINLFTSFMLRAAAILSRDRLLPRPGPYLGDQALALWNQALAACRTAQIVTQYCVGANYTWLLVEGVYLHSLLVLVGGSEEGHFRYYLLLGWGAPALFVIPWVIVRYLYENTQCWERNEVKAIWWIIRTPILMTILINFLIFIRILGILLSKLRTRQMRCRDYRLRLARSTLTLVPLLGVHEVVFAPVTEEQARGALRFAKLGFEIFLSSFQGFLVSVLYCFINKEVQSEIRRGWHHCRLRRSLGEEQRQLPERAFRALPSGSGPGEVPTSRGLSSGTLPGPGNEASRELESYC
Assay: cell-based or functional assay

| Binder | cAMP antagonism | cAMP antagonism % inhib | cAMP antagonism log |
| --- | --- | --- | --- |
| B1 | 23 nM | 100% | -7.6 log M |
| B2 | 38 nM | 100% | -7.4 log M |
| B3 | 31 nM | 88% | -7.5 log M |
| B4 | 14 nM | 100% | -7.9 log M |
| B5 | 40 nM | 100% | -7.4 log M |
